# Columns and labels:
# [1] = molecular target: P113 (Plasmodium falciparum) (UniProt Q8ILP3); details: cited from earlier work
# [2] = molecular target: P113 N-terminal fragment D106K E107K mutant, biotinylated bait (Plasmodium falciparum (3D7 strain)) (UniProt Q8ILP3); assay: SPR; […]; Biacore 8K, 37°C, HBS-EP
Substance,Kd [1] [µM],fold reduction in dissociation half-life against wild type [2] [fold]
RH5 (from UniProt Q8IFM5),0.3,
"RH5, purified monomeric protein (from UniProt Q8IFM5 25-526) (ligand)",,2

# — publication PMC7482062
